We go through 24 variants from paper PMC4860839, “Structures of the APC–ARM domain in complexes with discrete Amer1/WTX fragments reveal that it uses a consensus mode to recognize its binding partners” (Cell Discovery, 2015).

The chains are these.
B1: Amer1-A1 (human, residues 280–369), two-hybrid prey [human] / pBTM-APC–ARM (residues 308–789), two-hybrid bait [human] (parent complex)
chain 1: SLEEPHSPETGEKVVAGEVNPPNGPVGDPLSLLFGDVTSLKSFDSLTGCGDIIAEQDMDSMTDSMASGGQRANRDGTKRSSCLVTYQGGG
chain 2: LGTKVEMVYSLLSMLGTHDKDDMSRTLLAMSSSQDSCISMRQSGCLPLLIQLLHGNDKDSVLLGNSRGSKEARARASAALHNIIHSQPDDKRGRREIRVLHLLEQIRAYCETCWEWQEAHEPGMDQDKNPMPAPVEHQICPAVCVLMKLSFDEEHRHAMNELGGLQAIAELLQVDCEMYGLTNDHYSITLRRYAGMALTNLTFGDVANKATLCSMKGCMRALVAQLKSESEDLQQVIASVLRNLSWRADVNSKKTLREVGSVKALMECALEVKKESTLKSVLSALWNLSAHCTENKADICAVDGALAFLVGTLTYRSQTNTLAIIESGGGILRNVSSLIATNEDHRQILRENNCLQTLLQHLKSHSLTIVSNACGTLWNLSARNPKDQEALWDMGAVSMLKNLIHSKHKMIAMGSAAALRNLMANRPAKYKDANIMSPGSSLPSLHVRKQKALEAELDAQHLSETFDNIDNLSPKASHRSKQ
B2: pBTM-APC–ARM (residues 308–789), two-hybrid bait [human] / Amer1-A1 (murine, residues 279–367), two-hybrid prey [murine] (parent complex)
chain 1: B1 chain 2
chain 2: SLEEPHTSETEGKVVAGEVNPPNGPVGDQLSLLFGDVTSLKSFDSLTGCGDIIAEQDMDSMTDSMASGGQRANRDGTKRSSCLVTYQGG
B3: Amer1-A2 (human, residues 380–531), two-hybrid prey [human] / pBTM-APC–ARM (residues 308–789), two-hybrid bait [human] (parent complex)
chain 1: EEEEEEEEVELEEEEEEVKEEEEDDDLEYLWETAQMYPRPNMNLGYHPTTSPGHHGYMLLDPVRSYPGLAPGELLTPQSDQQESAPNSDEGYYDSTTPGFEDDSGEALGLVRRDCLPRDSYSGDALYEFYEPDDSLENSPPGDDCLYDLHGR
chain 2: B1 chain 2
B4: pBTM-APC–ARM (residues 308–789), two-hybrid bait [human] / Amer1-A4 (human, residues 337–455), two-hybrid prey [human] (parent complex)
chain 1: B1 chain 2
chain 2: MDSMTDSMASGGQRANRDGTKRSSCLVTYQGGGEEMALPDDDDEEEEEEEEVELEEEEEEVKEEEEDDDLEYLWETAQMYPRPNMNLGYHPTTSPGHHGYMLLDPVRSYPGLAPGELLT
B5: Amer1-A4 (human, residues 337–455), two-hybrid prey [human] / pBTM-APC–ARM (residues 308–789), two-hybrid bait [human] (parent complex)
chain 1: B4 chain 2
chain 2: B1 chain 2
B6: pBTM-APC–ARM (residues 308–789), two-hybrid bait [human] / Amer1-A2 (murine, residues 388–551), two-hybrid prey [murine] (parent complex)
chain 1: B1 chain 2
chain 2: EEEEEEEEEEEEEEEEEEEEEELLEDEEEVKDGEENDDLEYLWASAQIYPRFNMNLGYHTAISPSHQGYMLLDPVQSYPNLGLGELLTPQSDQQESAPNSDEGYYDSTTPGFEDDSGEALGLAHRDCLPRDSYSGDALYEFYEPDDSLEHSPPGDDCLYDLRGR

Variants of B1 are the subject of the first assay. The assay is described as follows: yeast two-hybrid assay (relative β-galactosidase reporter activity); parent: 100.
In the case of chain 1 D44K, the percent of parent worked out at 31.9%.
The same measure, in the same setting: the same measure for chain 1 T47R: 65.2%.
On the same count and under the same terms, the same measure for chain 1 D51K: 0%.

Variants of B2 are the subject of another assay. The description is as above.
Turning to chain 1 N243K, the percent of parent amounted to 0.38%.
Still for that read-out and setting: with chain 1 M410K the figure was 33.7%.
With chain 1 R420E, the percent of parent worked out at 41.3%.
Same read-out and setting: the same measure for chain 1 N200K: 1.86%; for chain 1 R242E: 1.48%; for chain 1 K209E: 0.09%.

Variants of B3 are the subject of the next assay. The description is as above.
Regarding chain 1 D119K, the percent of parent is 0.28%.
Same read-out and setting: the same measure for chain 1 D124K: 0.17%.

Another assay covers variants of B4. The assay is described as above.
Consider chain 1 N200K, for which the percent of parent stood at 0.28%.
For chain 1 K209E, the percent of parent came to 3.93%.
The same measure, in the same setting: the same measure for chain 1 M410K: 28.1%; for chain 1 R420E: 132%.
The same measure, in the same setting: with chain 1 R242E the figure was 0.84%.
chain 1 N243K: the percent of parent amounted to 0.28%.

Variants of B5 are the subject of another assay. Described as above.
For chain 1 E34K, the percent of parent amounted to 0.85%.

In the next assay the parent is B6. Described as above.
For chain 1 N200K, the percent of parent came to 0.33%.
The same measure, in the same setting: with chain 1 M410K the figure was 87.8%.
As for chain 1 K209E, the percent of parent is 0.27%.
For chain 1 R242E, the percent of parent was found to be 0.06%.
Turning to chain 1 R420E, the percent of parent stood at 75.2%.
As to chain 1 N243K, the percent of parent came to 0.12%.
